A protein production outcome set (Wang et al. 2014)

Assay: label from the status in PepcDB records

**Q.** Which protein production does the source give for “MSLQENISVTDSYSTGNAAQAMLEKLLQIYDVKMLVAQLNGVGENHWSAAILKRALANDSAWHRLSEKEFAHLQTLLPKPPEHHPHYAFRFIDLFAGIGGIRRGFESIGGQCVFTSEWNKHAVRTYKANHYCDPATHHFNEDIRDITLSHQEGVSDEAAAEHIRQHIPEHDVLLAGFPCQPFSLAGVSKKNSLGRAHGFACDTQGTLFFDVVRIIDARRPAMFVLENVKNLKSHDKGKTFRIIMQTLDELGYDVADAEDNGPDDPKIIDGKHFLPQHRERIVLVGFRRDLNLKADFTLRDISECFPAQRVTLAQLLDPMVEAKYILTPVLWKYLYRYAKKHQARGNGFGYGMVYPNNPQSVTRTLSARYYKDGAEILIDRGWDMATGEKDFDDPLNQQHRPRRLTPRECARLMGFEAPGEAKFRIPVSDTQAYRQFGNSVVVPVFAAVAKLLEPKIKQAVALRQQEAQHGRRSREGHHHHHH” here?
**A.** The protein production was “not failed”.

**Q.** For “MSLQTLLFSFQGRIGRQAFWLWNICYYAMIAGFAMGSNLLFPDVAHLILPVFLLVVLVPDLAITAKRWHDRDKSSWWLLLNVPLVIGRMTIPAGELAVNTQPGMLETLISFVALLCGAWILVECGFLSGTDGSNRFGAEPKWIKKS”, which protein production is on record?
**A.** The protein production was “failed”.

**Q.** Which protein production does the source give for “MSLQTRKQREDAKREAWKKERQEKKALEAQQDSVSYVQAINALKNGSFVLEADNVVFRNGIMRFVSSNTNYVEVNDGQGIIQTAFTNFVYNWSPNGLGGVTVQGNVNGISMRQDKDGNVYYNYGINGIAVSATVSIVLTGGTNQASVTINPNFSGNTLTMNGYLVPYNEGHHHHHH” here?
**A.** The protein production was “not failed”.

**Q.** With “MSLRAELNQGLIDFLKASPTPFHATASLARRLEAAGYRRLDERDAWHTETGGRYYVTRNDSSLIAIRLGRRSPLESGFRLVGAHTDSPCLRVKPNPEIARNGFLQLGVEVYGGALFAPWFDRDLSLAGRVTFRANGKLESRLVDFRKAIAVIPNLAIHLNRAANEGWPINAQNELPPIIAQLAPGEAADFRLLLDEQLLREHGITADVVLDYELSFYDTQSAAVVGLNDEFIAGARLDNLLSCHAGLEALLNAEGDENCILVCTDHEEVGSCSHCGADGPFLEQVLRRLLPEGDAFSRAIQRSLLVSADNAHGVHPNYADRHDANHGPALNGGPVIKINSNQRYATNSETAGFFRHLCQDSEVPVQSFVTRSDMGCGSTIGPITASQVGVRTVDIGLPTFAMHSIRELAGSHDLAHLVKVLGAFYASSELEGHHHHHH” as the sequence, how does the protein production read?
**A.** Its protein production is “not failed”.

**Q.** Which protein production does the source give for “MSLRILIVDDEKLTRDGLIANINWKALSFDQIDQADDGINAIQIALKHPPNVLLTDVRMPRMDGIELVDNILKLYPDCSVIFMSGYSDKEYLKAAIKFRAIRYVEKPIDPSEIMDALKQSIQTVLQHQAQQDSEGHHHHHH” here?
**A.** The protein production was “not failed”.

**Q.** With “MSLRPQTSFIFDLDGTLTDSVYQNVAAWKEALDAENIPLAMWRIHRKIGMSGGLMLKSLSRETGMSITDEQAERLSEKHAQAYERLQHQIIALPGAVELLETLDKENLKWCIATSGGIDTATINLKALKLDINKINIVTRDDVSYGKPDPDLFLAAAKKIGAPIDECLVIGDAIWDMLAARRCKATGVGLLSGGYDIGELERAGALRVYEDPLDLLNHLDEIASREGHHHHHH” as the sequence, how does the protein production read?
**A.** The protein production was “not failed”.

**Q.** Which protein production does the source give for “MSLSAQADARPTPAPSFSGVTVDGKPFSSASLKGKAYIVNFFATWCPPCRSEIPDMVQVQKTWASRGFTFVGIAVNEQLPNVKNYMKTQGIIYPVMMATPELIRAFNGYIDGGITGIPTSFVIDASGNVSGVIVGPRSKADFDRIVKMALGAKAATKEGHHHHHH” here?
**A.** The protein production was “not failed”.

**Q.** Which protein production does the source give for “MSLSDAVNKHPKSPNPQLCAVTLLGNLVATPDIRYRANPATAVTEIVLATSSKWLDKITNKYKEWTSYHHVKVEGELVELALLNANKGDIILLHGYLSNIKPKSTDKSTNHLGIVHANFVQKFEKGYTQAINQIHCSAQLTSKPKLMLTEQNKNITQANIVINQHIYNTDKQAWQTISVERAIHVWGKQAQYLAEHGDIGDELMLEGKLSYTSGVSKDQFIEVKNVHLFKGTLEHHHHHH” here?
**A.** The protein production was “not failed”.

**Q.** For “MSLSDLLYEIQDKVGLLTMNRISKHNAFDNQLLTEMRIRLDSAINDTNVRVIVLKANGKHFSAGADLTWMQSMANFTEEENLEDSLVLGNLMYSISQSPKPTIAMVQGAAFGGGAGLAAACDIAIASTSARFCFSEVKLGLIPAVISPYVVRAIGERAAKMLFMSAEVFDATRAYSLNLVQHCVPDDTLLEFTLKYASQISNNAPEAVKNSKQLAQYVANKKIDEELVRYTASLIAHKRVSDEGQEGLKAFLNKEIPNWNEGHHHHHH”, which protein production is on record?
**A.** The protein production was “not failed”.

**Q.** For “MSLSGALKENSGKPSEVEYTHFKDLQALEMERGRLYETIVVTWDDSMVGNAAPIGVLCTGDDTVTLYLYQGTRTVENVLNNGRFTVNVTLDPLIFTDSTLGDLEEDMFSHYRDFLHLRGADAFFTAEVVSVKKLVKRDRFGESELHVVKARAGDVMRAESFRMALNRGIYAVIESLIAYTRAEFSDPLVLRERIAEMNRVARKVGGPREKEAMRRIIQALESKISEGHHHHHH”, which protein production is on record?
**A.** The protein production was “not failed”.

**Q.** With “MSLSKILIAGCGDLGLELARRLTAQGHEVTGLRRSAQPMPAGVQTLIADVTRPDTLASIVHLRPEILVYCVAASEYSDEHYRLSYVEGLRNTLSALEGAPLQHVFFVSSTGVYGQEVEEWLDEDTPPIAKDFSGKRMLEAEALLAAYSSTILRFSGIYGPGRLRMIRQAQTPEQWPARNAWTNRIHRDDGAAFIAYLIQQRSHAVPERLYIVTDNQPLPVHDLLRWLADRQGIAYPAGATPPVQGNKKLSNARLLASGYQLIYPDYVSGYGALLAAMREGHHHHHH” as the sequence, how does the protein production read?
**A.** Its protein production is “not failed”.

**Q.** Which protein production does the source give for “MSLSKKIAVIGECMIELSEKGADVKRGFGGDTLNTSVYIARQVDPAALTVHYVTALGTDSFSQQMLDAWHGENVDTSLTQRMENRLPGLYYIETDSTGERTFYYWRNEAAAKFWLASEQSAAICEELANFDYLYLSGISLAILSPTSREKLLSLLRECRAKGGKVIFDNNYRPRLWASKEETQQVYQQMLECTDIAFLTLDDEDALWGQQPVEDVIARTHNAGVKEVVVKRGADSCLVSIAGEALVDVPAVKLPKEKVIDTTAAGDSFSAGYLAVRLTGGSAENAAKRGHLTASTVIQYRGAIIPREAMPAEGHHHHHH” here?
**A.** The protein production was “not failed”.

**Q.** Which protein production does the source give for “MSLSLIKVGLVGIGAQMQENLLPSLLQMQDIRIVAACDSDLERARRVHRFISDIPVLDNVPAMLNQVPLDAVVMAGPPQLHFEMGLLAMSKGVNVFVEKPPCATLEELETLIDAARRSDVVSGVGMNFKFARPVRQLREMTQVDEFGETLHIQLNHYANKPRAPLWGLDSTLRSFLLAQAIHTIDLAITFGDGELRRVQSSVQRHDDALIVRADMAFSSGATASLLAGTSFPYFEFDMKLVSSSSTLVELDNLWNITLHEPEHATRPTGAAKRWRGAWQPGPLDSGYERSGYHGELHQFFQAIREHRRFEADFASLLPTYRVIEEICSADAVAQGLQNAHSRIRTGIESLSEGHHHHHH” here?
**A.** The protein production was “not failed”.

**Q.** Which protein production does the source give for “MSLSNIETVPASIEMKPNPTITVFERSPDGGRGLARDMPVRWALEEVGRPYHVRRLSFEAMKEASHLAYQPFGQIPSYEQGDLILFESGAIVMHIAQHHSGLLPEDQLRRARTVAWMFAALNTIEPSILNFTTVWLFERNEPWHEARLARTKEQLLKRLDELSAWLGDREWLEGSFSAADILMICVLRRLESSGILKDYGNLLAYVERGKARPAFKRAFDAQLAVFTAASKNEGHHHHHH” here?
**A.** The protein production was “not failed”.

**Q.** Which protein production does the source give for “MSLSNRAGEILIVEDSPTQAEHLKHILEETGYQTEHVRNGREAVRFLSLTRPDLIISDVLMPEMDGYALCRWLKGQPDLRTIPVILLTILSDPRDVVRSLECGADDFITKPCKDVVLASHVKRLLSGVKRTEERYSRESITLAFGNEGHHHHHH” here?
**A.** Its protein production is “not failed”.

**Q.** With “MSLSQEMIKKWLDEEGFLRMEVPDENARFHYVVNYPEDHVIDIIQPAGKDDMILIACATSVSPEHQAGIRALSMEKRTEFIWKVRFTLNRFGVDFQLDHPENVLNSYLVTDEIFFDGLSKDRLISSIKNVFRAKLQVMWMIQERFGEERPEHDSMYVEGHHHHHH” as the sequence, how does the protein production read?
**A.** Its protein production is “not failed”.

**Q.** Which protein production does the source give for “MSLSQRTLLLLSQDNAHYERLLKAAHLPHLRILRADNQSDAEKLIGEAHILMAEPARAKPLLAKANKLSWFQSTYAGVDVLLDARCRRDYQLTNVRGIFGPLMSEYVFGHLLSLMRQLPLYREQQKQRLWQSHPYQGLKGRTLLILGTGSIGQHIAHTGKHFGMKVLGVSRSGRERAGFDQVYQLPALNKMLAQADVIVSVLPATRETHHLFTASRFEHCKPGAILFNVGRGNAINEGDLLTALRTGKLGMAVLDVFEQEPLPADSPLWGQPNLIITPHNSAYSFPDDVAQIFVRNYIRFIDGQPLDGKIDFDKGYEGHHHHHH” here?
**A.** Its protein production is “not failed”.
